Positions count from the first letter of the chain named. In names and notes the source's numbering stands.
B1: anti-CD20 (rituximab) human IgG1 L234Q/G236R (antibody)
heavy: not shown
light: QIVLSQSPAILSASPGEKVTMTCRASSSVSYIHWFQQKPGSSPKPWIYATSNLASGVPVRFSGSGSGTSYSLTISRVEAEDAATYYCQQWTSNPPTFGGGTKLEIKRTVAAPSVFIFPPSDEQLKSGTASVVCLLNNFYPREAKVQWKVDNALQSGNSQESVTEQDSKDSTYSLSSTLTLSKADYEKHKVYACEVTHQGLSSPVTKSFNRGEC
notes: EU numbering; also called 2-30; copies: 2 + 2
B2: anti-CD20 (rituximab variable regions) human IgG2 L234Q/L235S (antibody)
heavy: QVQLQQPGAELVKPGASVKMSCKASGYTFTSYNMHWVKQTPGRGLEWIGAIYPGNGDTSYNQKFKGKATLTADKSSSTAYMQLSSLTSEDSAVYYCARSTYYGGDWYFNVWGAGTTVTVSSASTKGPSVFPLAPCSRSTSESTAALGCLVKDYFPEPVTVSWNSGALTSGVHTFPAVLQSSGLYSLSSVVTVPSSNFGTQTYTCNVDHKPSNTKVDKTVERKCCVECPPCPAPPQSGPSVFLFPPKPKDTLMISRTPEVTCVVVDVSHEDPEVQFNWYVDGVEVHNAKTKPREEQFNSTFRVVSVLTVVHQDWLNGKEYKCKVSNKGLPAPIEKTISKTKGQPREPQVYTLPPSREEMTKNQVSLTCLVKGFYPSDIAVEWESNGQPENNYKTTPPMLDSDGSFFLYSKLTVDKSRWQQGNVFSCSVMHEALHNHYTQKSLSLSPGK
light: B1 light
notes: also called 11.144; copies: 2 + 2
B3: anti-CD20 (rituximab variable regions) human IgG4 L234Q/L235S/G236R (with S228P) (antibody)
heavy: QVQLQQPGAELVKPGASVKMSCKASGYTFTSYNMHWVKQTPGRGLEWIGAIYPGNGDTSYNQKFKGKATLTADKSSSTAYMQLSSLTSEDSAVYYCARSTYYGGDWYFNVWGAGTTVTVSSASTKGPSVFPLAPCSRSTSESTAALGCLVKDYFPEPVTVSWNSGALTSGVHTFPAVLQSSGLYSLSSVVTVPSSSLGTKTYTCNVDHKPSNTKVDKRVESKYGPPCPPCPAPEQSRGPSVFLFPPKPKDTLMISRTPEVTCVVVDVSQEDPEVQFNWYVDGVEVHNAKTKPREEQFNSTYRVVSVLTVLHQDWLNGKEYKCKVSNKGLPSSIEKTISKAKGQPREPQVYTLPPSQEEMTKNQVSLTCLVKGFYPSDIAVEWESNGQPENNYKTTPPVLDSDGSFFLYSRLTVDKSRWQEGNVFSCSVMHEALHNHYTQKSLSLSLGK
light: B1 light
notes: copies: 2 + 2
B4: anti-CD20 (rituximab) human IgG1 L234Q/L235S/G236R/M252Y/S254T/T256E (antibody)
heavy: QVQLQQPGAELVKPGASVKMSCKASGYTFTSYNMHWVKQTPGRGLEWIGAIYPGNGDTSYNQKFKGKATLTADKSSSTAYMQLSSLTSEDSAVYYCARSTYYGGDWYFNVWGAGTTVTVSSASTKGPSVFPLAPSSKSTSGGTAALGCLVKDYFPEPVTVSWNSGALTSGVHTFPAVLQSSGLYSLSSVVTVPSSSLGTQTYICNVNHKPSNTKVDKKVEPKSCDKTHTCPPCPAPEQSRGPSVFLFPPKPKDTLYITREPEVTCVVVDVSHEDPEVKFNWYVDGVEVHNAKTKPREEQYNSTYRVVSVLTVLHQDWLNGKEYKCKVSNKALPAPIEKTISKAKGQPREPQVYTLPPSRDELTKNQVSLTCLVKGFYPSDIAVEWESNGQPENNYKTTPPVLDSDGSFFLYSKLTVDKSRWQQGNVFSCSVMHEALHNHYTQKSLSLSPGK
light: B1 light
notes: EU numbering; also called 10.145; copies: 2 + 2
B5: anti-CD20 (rituximab) human IgG1 L235S/G236R (antibody)
heavy: not shown
light: B1 light
notes: EU numbering; also called 2-80; copies: 2 + 2
B6: anti-CD20 (rituximab) human IgG1 L235G/G236R (antibody)
heavy: not shown
light: B1 light
notes: EU numbering; also called 2-83; copies: 2 + 2
B7: anti-CD20 (rituximab) human IgG1 L234Q/L235A/G236R (antibody)
heavy: not shown
light: B1 light
notes: EU numbering; also called 2-27; copies: 2 + 2
B8: anti-CD20 (rituximab) human IgG1 L234Q/L235S/G236R/T250Q/M428L (antibody)
heavy: B4 heavy with T254Q, Y256M, T258S, E260T, M432L
light: B1 light
notes: EU numbering; also called 10.146; copies: 2 + 2
B9: anti-CD20 (rituximab) human IgG1 L234R/L235R/G236R (antibody)
heavy: B4 heavy with Q238R, S239R, Y256M, T258S, E260T
light: B1 light
notes: EU numbering; also called 2-43; copies: 2 + 2
B10: anti-CD20 (rituximab variable regions) rabbit IgG L234Q/L235S/G236R (antibody)
heavy: QVQLQQPGAELVKPGASVKMSCKASGYTFTSYNMHWVKQTPGRGLEWIGAIYPGNGDTSYNQKFKGKATLTADKSSSTAYMQLSSLTSEDSAVYYCARSTYYGGDWYFNVWGAGTTVTVSSGQPKAPSVFPLAPCCGDTPSSTVTLGCLVKGYLPEPVTVTWNSGTLTNGVRTFPSVRQSSGLYSLSSVVSVTSSSQPVTCNVAHPATNTKVDKTVAPSTCSKPTCPPPEQSRGPSVFIFPPKPKDTLMISRTPEVTCVVVDVSEDDPEVQFTWYINNEQVRTARPPLREQQFNSTIRVVSTLPIAHEDWLRGKEFKCKVHNKALPAPIEKTISKARGQPLEPKVYTMGPPREELSSRSVSLTCMINGFYPSDISVEWEKNGKAEDNYKTTPAVLDSDGSYFLYSKLSVPTSEWQRGDVFTCSVMHEALHNHYTQKSISRSPGK
light: QIVLSQSPAILSASPGEKVTMTCRASSSVSYIHWFQQKPGSSPKPWIYATSNLASGVPVRFSGSGSGTSYSLTISRVEAEDAATYYCQQWTSNPPTFGGGTKLEIKRDPVAPSVLLFPPSKEELTTGTATIVCVANKFYPSDITVTWKVDGTTQQSGIENSKTPQSPEDNTYSLSSTLSLTSAQYNSHSVYTCEVVQGSASPIVQSFNRGDC
notes: also called 23.77

Legend:
[1] = target: T1, human FcRn (R&D Systems Cat. No. 8639-Fc) (human, UniProt P55899 24-297; P61769 21-119); assay: SPR, FcRn captured; Expt 3
[2] = target: T1, human FcRn (R&D Systems Cat. No. …); assay: SPR, FcRn captured; Expt 2
[3] = target: T1, human FcRn (R&D Systems Cat. No. …); assay: SPR, FcRn captured; Mean
[4] = target: T1, human FcRn (R&D Systems Cat. No. …); assay: SPR, FcRn captured; Expt 1
[5] = target: T2, Human C1q (Sigma Cat. No. 20476), HRP-labelled (human, UniProt P02745 23-245; P02746 28-253; P02747 29-245); assay: ELISA, antibody coated, HRP-C1q; Expt 2, buffer alone 0.091
T2 construct: Coupled to horse-radish peroxidase with Lightning-Link kit; also called HRP-labelled C1q

[6] = target: T3, C-terminus biotinylated human FcRn attached to Streptavidin-SmBiT (FcRn-SAv-SmBiT) (human, UniProt P55899 24-297; P61769 21-119, limits assumed, C-terminus biotinylated (AviTag), attached to Streptavidin-SmBiT); assay: NanoBiT FcRn competition immunoassay, competitor Tracer-LgBiT human IgG, pH 6.0
T3 construct: Kit reagent; also called hFcRn-AviTag

[7] = target: T2, Human C1q (Sigma Cat. No. 20476), …; assay: ELISA, antibody coated, HRP-C1q; Expt 2, buffer alone 0.051
[8] = target: T2, Human C1q (Sigma Cat. No. 20476), …; assay: ELISA, antibody coated, HRP-C1q; Expt 1, buffer alone 0.053
[9] = target: T4, mouse FcRn (Sino Biological Cat. No. CT029-M08H) (mouse, UniProt Q61559 22-297; P01887 21-119); assay: SPR, FcRn captured via anti-His, pH 6.0;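 also: SPR binding signal relative to the reference cell, corrected by subtracting the response of a blank sample of running buffer alone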
T4 construct: Bought protein, captured on an anti-histidine chip
T4 sequence (looked up): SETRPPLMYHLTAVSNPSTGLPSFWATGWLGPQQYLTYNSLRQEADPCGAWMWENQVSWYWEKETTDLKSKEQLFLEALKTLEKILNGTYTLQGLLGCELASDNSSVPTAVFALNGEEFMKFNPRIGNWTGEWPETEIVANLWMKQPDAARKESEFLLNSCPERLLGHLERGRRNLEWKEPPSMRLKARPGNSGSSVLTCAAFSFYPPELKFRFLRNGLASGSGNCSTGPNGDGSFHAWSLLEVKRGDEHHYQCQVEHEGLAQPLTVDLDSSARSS
T4 sequence (b2m, looked up): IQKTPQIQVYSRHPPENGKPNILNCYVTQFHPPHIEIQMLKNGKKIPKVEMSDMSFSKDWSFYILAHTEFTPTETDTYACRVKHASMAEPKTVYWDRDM

[10] = target: T1, human FcRn (R&D Systems Cat. No. …); assay: SPR, FcRn captured via anti-His, pH 6.0;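 also: SPR binding signal relative to the reference cell, corrected by subtracting the response of a blank sample of running buffer alone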
[11] = target: T5, cynomolgus monkey FcRn (Sino Biological Cat. No. CT031-C08H) (cynomolgus monkey, UniProt Q8SPV9 24-297; Q8SPW0 21-119); assay: SPR, FcRn captured via anti-His, pH 6.0;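 also: SPR binding signal relative to the reference cell, corrected by subtracting the response of a blank sample of running buffer alone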
T5 construct: Bought protein, captured on an anti-histidine chip; also called cynomolgus FcRn

[12] = target: T2, Human C1q (Sigma Cat. No. 20476), …; assay: ELISA, antibody coated, HRP-C1q; Expt 1, buffer alone 0.061

Corrected and normalised response (% of wild-type reference) [1] | Corrected and normalised response (% of wild-type reference) [2] | Corrected and normalised response (% of wild-type reference) [3] | Corrected and normalised response (% of wild-type reference) [4] | Mean binding activity (% of wild-type reference) [6] | Mean Absorbance [7] | Mean Absorbance [8] | Corrected response (RU) [9] [RU] | Corrected response (RU) [10] [RU] | Corrected response (RU) [11] [RU] | other results | Binder
99 % of wild-type reference | 99 % of wild-type reference | 99.3 % of wild-type reference | 100 % of wild-type reference |  |  |  |  |  |  | Mean Absorbance [5]: 0.089 absorbance (450 nm) | B1
 |  |  |  | 143 % of wild-type reference |  |  |  |  |  |  | B2
 |  |  |  | 114 % of wild-type reference | 0.052 absorbance (450 nm) | 0.051 absorbance (450 nm) |  |  |  |  | B3
 |  |  |  | 3940 % of wild-type reference | 0.056 absorbance (450 nm) | 0.052 absorbance (450 nm) |  |  |  |  | B4
 |  |  |  |  |  |  | 189 | 530 | 1220 |  | B5
 |  |  |  |  |  |  | 146 | 547 | 1250 |  | B6
92.8 % of wild-type reference | 93.4 % of wild-type reference | 93.5 % of wild-type reference | 94.5 % of wild-type reference |  |  |  | 154 | 513 | 1220 | Mean Absorbance [12]: 0.048 absorbance (450 nm) | B7
 |  |  |  | 650 % of wild-type reference | 0.062 absorbance (450 nm) | 0.051 absorbance (450 nm) |  |  |  |  | B8
108 % of wild-type reference | 108 % of wild-type reference | 108 % of wild-type reference | 106 % of wild-type reference |  |  |  | 181 | 570 | 1300 | Mean Absorbance [12]: 0.029 absorbance (450 nm) | B9
 |  |  |  | 147 % of wild-type reference | 0.048 absorbance (450 nm) | 0.051 absorbance (450 nm) |  |  |  |  | B10

From patent US20230235013A1 (MABSOLVE, published 2023)
